Here are results for one variant from publication PMC13627691 (2026).

B1: ATG2A-mCherry (expressed as 3XFLAG-TEV-ATG2A-mCherry) [not stated (the printed accession is a human entry)] / GST-tagged LC3B [not stated (the printed accession is a human entry)] (parent complex)
chain 1: MSRWLWPWSNCVKERVCRYLLHHYLGHFFQEHLSLDQLSLDLYKGSVALRDIHLEIWSVNEVLESMESPLELVEGFVGSIEVAVPWAALLTDHCTVRVSGLQLTLQPRRGPAPGAADSQSWASCMTTSLQLAQECLRDGLPEPSEPPQPLEGLEMFAQTIETVLRRIKVTFLDTVVRVEHSPGDGERGVAVEVRVQRLEYCDEAVRDPSQAPPVDVHQPPAFLHKLLQLAGVRLHYEELPAQEEPPEPPLQIGSCSGYMELMVKLKQNEAFPGPKLEVAGQLGSLHLLLTPRQLQQLQELLSAVSLTDHEGLADKLNKSRPLGAEDLWLIEQDLNQQLQAGAVAEPLSPDPLTNPLLNLDNTDLFFSMAGLTSSVASALSELSLSDVDLASSVRSDMASRRLSAQAHPAGKMAPNPLLDTMRPDSLLKMTLGGVTLTLLQTSAPSSGPPDLATHFFTEFDATKDGPFGSRDFHHLRPRFQRACPCSHVRLTGTAVQLSWELRTGSRGRRTTSMEVHFGQLEVLECLWPRGTSEPEYTEILTFPGTLGSQASARPCAHLRHTQILRRVPKSRPRRSVACHCHSELALDLANFQADVELGALDRLAALLRLATVPAEPPAGLLTEPLPAMEQQTVFRLSAPRATLRLRFPIADLRPEPDPWAGQAVRAEQLRLELSEPQFRSELSSGPGPPVPTHLELTCSDLHGIYEDGGKPPVPCLRVSKALDPKSTGRKYFLPQVVVTVNPQSSSTQWEVAPEKGEELELSVESPCELREPEPSPFSSKRTMYETEEMVIPGDPEEMRTFQSRTLALSRCSLEVILPSVHIFLPSKEVYESIYNRINNDLLMWEPADLLPTPDPAAQPSGFPGPSGFWHDSFKMCKSAFKLANCFDLTPDSDSDDEDAHFFSVGASGGPQAAAPEAPSLHLQSTFSTLVTVLKGRITALCETKDEGGKRLEAVHGELVLDMEHGTLFSVSQYCGQPGLGYFCLEAEKATLYHRAAVDDYPLPSHLDLPSFAPPAQLAPTIYPSEEGVTERGASGRKGQGRGPHMLSTAVRIHLDPHKNVKEFLVTLRLHKATLRHYMALPEQSWHSQLLEFLDVLDDPVLGYLPPTVITILHTHLFSCSVDYRPLYLPVRVLITAETFTLSSNIIMDTSTFLLRFILDDSALYLSDKCEVETLDLRRDYVCVLDVDLLELVIKTWKGSTEGKLSQPLFELRCSNNVVHVHSCADSCALLVNLLQYVMSTGDLHPPPRPPSPTEIAGQKLSESPASLPSCPPVETALINQRDLADALLDTERSLRELAQPSGGHLPQASPISVYLFPGERSGAPPPSPPVGGPAGSLGSCSEEKEDEREEEGDGDTLDSDEFCILDAPGLGIPPRDGEPVVTQLHPGPIVVRDGYFSRPIGSTDLLRAPAHFPVPSTRVVLREVSLVWHLYGGRDFGPHPGHRARTGLSGPRSSPSRCSGPNRPQNSWRTQGGSGRQHHVLMEIQLSKVSFQHEVYPAEPATGPAAPSQELEERPLSRQVFIVQELEVRDRLASSQINKFLYLHTSERMPRRAHSNMLTIKALHVAPTTNLGGPECCLRVSLMPLRLNVDQDALFFLKDFFTSLVAGINPVVPGETSAEARPETRAQPSSPLEGQAEGVETTGSQEAPGGGHSPSPPDQQPIYFREFRFTSEVPIWLDYHGKHVTMDQVGTFAGLLIGLAQLNCSELKLKRLCCRHGLLGVDKVLGYALNEWLQDIRKNQLPGLLGGVGPMHSVVQLFQGFRDLLWLPIEQYRKDGRLMRGLQRGAASFGSSTASAALELSNRLVQAIQATAETVYDILSPAAPVSRSLQDKRSARRLRRGQQPADLREGVAKAYDTVREGILDTAQTICDVASRGHEQKGLTGAVGGVIRQLPPTVVKPLILATEATSSLLGGMRNQIVPDAHKDHALKWRSDSAQD
chain 2: not shown

This test covers variants of B1. The experiment in a line: bead-based binding assay (GSH beads, confocal imaging of mCherry fluorescence); 5 µM GST-tagged bait on Glutathione Sepharose 4B beads; 0.5 µM ATG2A-mCherry or ATG2A-LIR-mCherry; SEC150 buffer; N = 3; parent: 17; read off a plot.
With chain 1 F1362A, chain 1 C1363A, chain 1 I1364A, chain 1 L1365A, the response is around 0.7%.
